Laboratory results published in paper PMC10830416.

Molecular target: LINE-1 ORF2p (L1 ORF2p), wild type (Homo sapiens, UniProt O00370 1-1275)
Assay: cryo-EM structure (3.2 A); dTTP bound as incoming nucleotide; dTTP, dATP, ddGTP 1 mM each; 10 mM MgCl2; BS3 cross-linked; Cryo-EM: 600 nm ORF2p, RNA-DNA duplex 2:1 over protein, 30 mM K-HEPES pH 7.9, 150 mM KCl, 10 mM MgCl2, 5 mM EGTA, 1 mM DTT, 37 C 30 s, then 4 mM BS3 on ice 5 mi

Sequence of LINE-1 ORF2p (L1 ORF2p), wild type (O00370 whole entry): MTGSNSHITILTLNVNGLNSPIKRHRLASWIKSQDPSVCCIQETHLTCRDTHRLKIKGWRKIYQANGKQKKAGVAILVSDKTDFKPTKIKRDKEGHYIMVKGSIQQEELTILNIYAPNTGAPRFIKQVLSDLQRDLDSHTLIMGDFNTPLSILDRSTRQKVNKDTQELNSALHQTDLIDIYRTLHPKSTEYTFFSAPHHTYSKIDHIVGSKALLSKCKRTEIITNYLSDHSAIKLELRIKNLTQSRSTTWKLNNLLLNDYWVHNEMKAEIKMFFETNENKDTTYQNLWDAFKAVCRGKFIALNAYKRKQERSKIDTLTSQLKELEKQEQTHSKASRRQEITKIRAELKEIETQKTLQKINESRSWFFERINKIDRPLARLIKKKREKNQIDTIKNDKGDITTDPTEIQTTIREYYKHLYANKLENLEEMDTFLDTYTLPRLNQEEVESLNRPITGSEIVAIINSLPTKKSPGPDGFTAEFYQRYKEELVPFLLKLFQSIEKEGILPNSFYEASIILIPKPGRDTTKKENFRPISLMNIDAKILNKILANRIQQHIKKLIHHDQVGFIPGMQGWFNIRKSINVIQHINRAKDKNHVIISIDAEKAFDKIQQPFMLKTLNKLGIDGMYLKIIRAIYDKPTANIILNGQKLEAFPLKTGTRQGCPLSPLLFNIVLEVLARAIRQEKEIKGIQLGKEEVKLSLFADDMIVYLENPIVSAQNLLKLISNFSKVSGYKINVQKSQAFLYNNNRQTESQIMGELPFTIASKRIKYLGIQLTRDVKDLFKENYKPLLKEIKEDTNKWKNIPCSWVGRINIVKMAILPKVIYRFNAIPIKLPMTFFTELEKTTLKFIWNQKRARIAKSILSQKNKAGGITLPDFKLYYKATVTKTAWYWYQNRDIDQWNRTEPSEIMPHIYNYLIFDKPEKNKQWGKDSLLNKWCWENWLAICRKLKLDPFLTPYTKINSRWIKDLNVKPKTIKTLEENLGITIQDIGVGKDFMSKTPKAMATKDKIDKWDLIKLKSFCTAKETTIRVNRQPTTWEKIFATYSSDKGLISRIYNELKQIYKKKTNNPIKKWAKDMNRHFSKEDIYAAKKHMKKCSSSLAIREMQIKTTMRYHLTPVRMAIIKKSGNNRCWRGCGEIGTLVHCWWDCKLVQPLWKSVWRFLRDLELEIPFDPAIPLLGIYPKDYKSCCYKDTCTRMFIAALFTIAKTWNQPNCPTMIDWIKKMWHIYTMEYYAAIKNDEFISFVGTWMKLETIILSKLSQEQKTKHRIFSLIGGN

B1: Synthetic template RNA (74 nt) with 8 nt DNA primer extended to 13 nt, ending in ddG (mixed)
RNA: GCAGACUGCGUAGGCGUGCAGGAACCUGCACGCCUACGCAGUCUGCAAAAAAAAAAAAAAACAAUAUCGGCGCG
DNA: CGCGCCGATATTG
modifications: 3' dideoxyguanosine on the cDNA strand
**Q.** Does B1 bind?
**A.** Result: binds
